Data taken from patent CN107827981A (SHENZHEN GUOCHUANG NANOMETER ANTIBODY TECH CO LTD, dated 2018).

T1: 重组PE免疫毒素 (recombinant Pseudomonas exotoxin A, partial sequence) (Pseudomonas aeruginosa (绿脓杆菌), UniProt P11439 173-638)
T1 construct: also called 重组PE抗原; 重组蛋白PE
T1 sequence: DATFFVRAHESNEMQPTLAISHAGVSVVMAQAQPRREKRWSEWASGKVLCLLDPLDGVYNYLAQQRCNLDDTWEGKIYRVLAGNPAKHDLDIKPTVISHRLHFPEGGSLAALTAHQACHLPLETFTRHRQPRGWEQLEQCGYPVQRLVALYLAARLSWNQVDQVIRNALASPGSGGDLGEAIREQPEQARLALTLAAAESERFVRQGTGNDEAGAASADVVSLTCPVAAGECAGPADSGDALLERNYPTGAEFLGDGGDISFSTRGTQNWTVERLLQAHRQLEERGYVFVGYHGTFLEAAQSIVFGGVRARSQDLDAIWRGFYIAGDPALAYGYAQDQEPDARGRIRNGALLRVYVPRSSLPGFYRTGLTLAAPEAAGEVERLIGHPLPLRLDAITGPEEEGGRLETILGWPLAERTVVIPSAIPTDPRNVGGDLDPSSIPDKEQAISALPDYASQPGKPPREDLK

B1: 纳米抗体VHH-PE 1 (VHH)
VHH: ESGGGLVQAGGSLRLSCAASGRTFSSTGHTFSSYAMGWFRQTPGKEREFVAAISWSGTSTYYADSVKGRFTISRDNAKNTVYLQMNSLKPEDTAVYYCAARFWDYGLGSSDLKSPREYDYWGQGTQ
B2: 纳米抗体VHH-PE 2 (VHH)
chain: ESGGGLVQAGGSLRLSGVASRRTFCNYLDAMGWLSLVTGKERELVAHITGNRGDVMYLDSVKAGSTISRVKTNSTVYLQMNSMKPEDTHVYYWAPKATGFFSPKEEEKYNWWGQGTQ

Molecular target: T1, 重组PE免疫毒素 (recombinant Pseudomonas …)
Experiment: SPR, Biacore T100, 1:1 binding fit

Binder	Kd [nM]
B1	12.2
B2	4.85
